Results: paper PMC12470901, “Bioelectrocatalyst for O2 Reduction Based on a Novel Recombinant Two-Domain Laccase from Streptomyces ochraceisleroticus Immobilized on Naphthyl-Modified MWCNTs” (International Journal of Molecular Sciences, 2025)

T1: SoSL (Ac-651) (Streptomyces ochraceiscleroticus, UniProt A0ABW1MU60)
T1 construct: gene ACFP4F_27515
T1 sequence (A0ABW1MU60 37-329): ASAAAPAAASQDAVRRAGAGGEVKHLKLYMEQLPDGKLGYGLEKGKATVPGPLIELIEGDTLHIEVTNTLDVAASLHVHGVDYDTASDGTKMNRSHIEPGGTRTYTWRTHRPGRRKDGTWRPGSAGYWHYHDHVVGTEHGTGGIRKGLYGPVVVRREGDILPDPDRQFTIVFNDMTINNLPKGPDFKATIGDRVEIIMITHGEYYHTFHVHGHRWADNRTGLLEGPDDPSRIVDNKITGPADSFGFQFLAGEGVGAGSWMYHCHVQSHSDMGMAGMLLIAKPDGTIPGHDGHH


Experiments:
[1] = biological target: T1, SoSL (Ac-651); conditions: pH 3.7; inhibitor
[2] = substrate: CCn1c(=NN=c2sc3cc(S(=O)(=O)O)ccc3n2CC)sc2cc(S(=O)(=O)O)ccc21; test: purified protein; type: biochemical, Streptomyces ochraceiscleroticus; conditions: pH 3.5, 30 °C, 50 mM Britton–Robinson buffer, free enzyme (b72 lists the two pH values in reversed order)
[3] = substrate: COc1cccc(OC)c1O; test: purified protein; type: biochemical, Streptomyces ochraceiscleroticus; conditions: pH 9.0, 30 °C, 50 mM Britton–Robinson buffer, free enzyme (b72 lists the two pH values in reversed order)

| Molecule | 10 mM [1] | Km [2] | kcat [2] | Km [3] | kcat [3] |
| --- | --- | --- | --- | --- | --- |
| F [sodium fluoride] | 67.8 ± 0.6% | – | – | – | – |
| SoSL (Ac-651) (Streptomyces ochraceiscleroticus) (protein, TAT signal peptide removed (lacks 36 N-terminal residues of 329), pQE-30 His-tag, E. coli M15 [pREP4], Ni-sepharose; 33 kDa computed, ~35 kDa SDS-PAGE; trimeric) ASAAAPAAASQDAVRRAGAGGEVKHLKLYMEQLPDGKLGYGLEKGKATVPGPLIELIEGDTLHIEVTNTLDVAASLHVHGVDYDTASDGTKMNRSHIEPGGTRTYTWRTHRPGRRKDGTWRPGSAGYWHYHDHVVGTEHGTGGIRKGLYGPVVVRREGDILPDPDRQFTIVFNDMTINNLPKGPDFKATIGDRVEIIMITHGEYYHTFHVHGHRWADNRTGLLEGPDDPSRIVDNKITGPADSFGFQFLAGEGVGAGSWMYHCHVQSHSDMGMAGMLLIAKPDGTIPGHDGHH | – | 50 µM | 106 s⁻¹ | 760 µM | 0.11 s⁻¹ |
